Results: article PMC4378939

Assays:
[1] = biological target: single domain antibody against GFP with a six histidine-tag at the C-terminal (GFP-Nb) (llama); experiment: SPR; BIAcore X100, 25°C; GFP-Nb captured by its His tag on anti-polyhistidine antibody amine-coupled to a CM5 chip, GFP as analyte, 30 μl/min; 10 mM HEPES pH 7.4, 0.15 M NaCl, 0.05% tween 20; kon and koff from 1:1 fit, KD from end-point response (Hill equation)
[2] = biological target: single domain antibody against GFP with a six histidine-tag at the C-terminal (GFP-Nb) (llama); experiment: SPR; BIAcore X100, 25°C; GFP-Nb (~3 nM, ~50 R.U.) captured by its His tag on Ni:NTA chip, GFP as analyte (0.1-1000 nM), 30 μl/min; 10 mM HEPES pH 7.4, 0.15 M NaCl, 50 μM EDTA, 0.05% tween 20; kon and koff from 1:1 fit, KD from end-point response (Hill equation)
[3] = biological target: single domain antibody against GFP with a six histidine-tag at the C-terminal (GFP-Nb) (llama); experiment: SPR; BIAcore X100, 25°C; GFP-Nb amine-coupled to a CM5 chip (~2500 R.U.), GFP as analyte (0.2-1000 nM; 10 nM with dissociation followed for 36000 s for koff); 10 mM HEPES pH 7.4, 0.15 M NaCl, 0.05% tween 20; KD from end-point response (Hill coefficient 1)
[4] = biological target: single domain antibody against GFP with a six histidine-tag at the C-terminal (GFP-Nb) (llama); experiment: SPR; GFP-Nb diluted in NTA running buffer of pH 4.0-10.5, then captured on Ni:NTA chip; 30 nM GFP as analyte; constants given for the whole pH range
[5] = biological target: single domain antibody against GFP with a six histidine-tag at the C-terminal (GFP-Nb) (llama); experiment: SPR; GFP-Nb captured on Ni:NTA chip; 30 nM GFP diluted in NTA running buffer with different NaCl concentrations (up to 1 M) as analyte; constants given for all NaCl concentrations
[6] = biological target: single domain antibody against GFP with a six histidine-tag at the C-terminal (GFP-Nb) (llama); experiment: SPR; GFP-Nb heated for 30 min at 25-100°C and cooled 30 min at room temperature, then captured on Ni:NTA chip; 30 nM GFP as analyte; NTA running buffer, 25°C; constants given for the whole temperature range

Sequence of single domain antibody against GFP with a six histidine-tag at the C-terminal (GFP-Nb) (llama) (heavy, as listed by the source): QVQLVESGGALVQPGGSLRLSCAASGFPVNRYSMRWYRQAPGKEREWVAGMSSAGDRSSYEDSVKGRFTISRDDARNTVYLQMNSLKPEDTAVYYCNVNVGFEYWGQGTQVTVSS

Substance: Green Fluorescent Protein (GFP) (from UniProt P42212 1-238) (natural protein)
- Kd [1]: 5.5 nM
- koff [1]: 0.00029 s⁻¹
- kon [1]: 1e+06 M⁻¹ s⁻¹
- Kd [2]: 6.1 nM
- koff [2]: 0.00071 s⁻¹
- kon [2]: 1.1e+06 M⁻¹ s⁻¹
- Kd [3]: 9.6 nM
- koff [3]: 1.4e-05 s⁻¹
- koff [4]: 0.00064 s⁻¹
- kon [4]: 1.4e+06 M⁻¹ s⁻¹
- koff [5]: 0.00063 s⁻¹
- kon [5]: 1.5e+06 M⁻¹ s⁻¹
- koff [6]: 0.00063 s⁻¹
- kon [6]: 1.5e+06 M⁻¹ s⁻¹
